From article PMC9603128, “Physiological, Biochemical, and Structural Bioinformatic Analysis of the Multiple Inositol Dehydrogenases from Corynebacterium glutamicum” (Microbiology Spectrum, 2022) come the findings set out here.

A word on the Km: it is the substrate concentration at which the rate is half of its maximum. In general, Vmax refers to the top rate of the reaction or transport when substrate is in excess. In general, kcat refers to the maximal rate divided by the concentration of active sites. What is called kcat/Km is the turnover number divided by the Michaelis constant.

Holding throughout (assay): purified protein
Assay type in all cases: biochemical, Corynebacterium glutamicum
Details in all cases: 5 mM NAD+, pH 7.5, 100 mM potassium phosphate, 1 mM MgSO4, 30 °C, substrate 0.5 to 50 mM

Substrate in series [1]: O[C@H]1[C@H](O)[C@@H](O)[C@H](O)[C@@H](O)[C@H]1O
Substrate in series [2]: O[C@H]1[C@H](O)[C@H](O)[C@@H](O)[C@H](O)[C@H]1O
Substrate in series [3]: O[C@H]1[C@H](O)[C@@H](O)[C@H](O)[C@@H](O)[C@@H]1O

B1: IolG (Corynebacterium glutamicum ATCC 13032) (protein)
chain: MSKSLRVGVVGAGAMGADHIDRINNRTSGAHISAIIEPDAARAAAAAEDAPGAQAFTRIEDAIAADAVDAVLIAVPGQFHEPVLVPALEAGLPILCEKPLTPDSESSLRIVELEQKLDKPHIQVGFMRRFDPEYNNLRKLVESGEAGELLMLRGLHRNPSVGESYTQSMLITDSVVHEFDVIPWLAGSRVVSVEVKYPKTSSLAHSGLKEPILVIMELENGVLVDVEMNVNIQFGYQVATEAVFEKGLARIGQPSGMQRWRDGEFLINEHTDFTTRFATAYDRQIQSWVDAVHEGTLVAGPNAWDGYLVALSCEAGVKALDGGVIPVDAAPRPDFYA
notes: full length, C-terminal Strep-tag II, expressed in C. glutamicum MB001(DE3) from pPREx6-IolG; StrepTactin and size exclusion
As for B1, in “purified protein [1]”, the Km came out at 60.9 ± 13.7 mM, the Vmax came out at 23.1 µmol/min/mg, the kcat stood at 14 ± 1.9 s⁻¹ and the kcat/Km was found to be 235 ± 23.4 M⁻¹ s⁻¹. In “purified protein [2]”, the Km worked out at 61.93 ± 5.61 mM, the kcat is 8.66 ± 0.54 s⁻¹ and the kcat/Km amounted to 140 ± 7.4 M⁻¹ s⁻¹.

B2: OxiD (Corynebacterium glutamicum ATCC 13032) (protein)
chain: MTLRIALFGAGRIGHVHAANIAANPDLELVVIADPFIEGAQRLAEANGAEAVASPDEVFARDDIDGIVIGSPTSTHVDLITRAVERGIPALCEKPIDLDIEMVRACKEKIGDGASKVMLGFNRRFDPSFAAINARVANQEIGNLEQLVIISRDPAPAPKDYIAGSGGIFRDMTIHDLDMARFFVPNIVEVTATGANVFSQEIAEFNDYDQVIVTLRGSKGELINIVNSRHCSYGYDQRLEAFGSKGMLAADNIRPTTVRKHNAESTEQADPIFNFFLERYDAAYKAELATFAQGIRDGQGFSPNFEDGVIALELANACLESAQTGRTVTLNPANV
notes: full length, C-terminal Strep-tag II, expressed in C. glutamicum MB001(DE3) from pPREx6-OxiD; StrepTactin and size exclusion
Turning to B2, in the series “purified protein [1]”, the Km is given as 19.6 ± 1.8 mM, the Vmax amounted to 59 µmol/min/mg, the kcat is 35.6 ± 1.4 s⁻¹ and the kcat/Km stood at 1830 ± 107 M⁻¹ s⁻¹. Further, in “purified protein [2]”, the Km amounted to 50.6 ± 8.7 mM, the Vmax turned out to be 25.5 µmol/min/mg, the kcat was 15.4 ± 1.7 s⁻¹ and the kcat/Km stood at 308 ± 20 M⁻¹ s⁻¹.

B3: OxiB (Corynebacterium glutamicum ATCC 13032) (protein)
chain: MTQQELRVAVIGAGMAGKAHAAGYRTASSIYSTTLPNIRLVSIADANVQLAEETAARFGFERFDTSWQAIVEADDIDVVSVVVANFLHREIVEALLASGKHVLCEKPLSDTIEDAEAMIEAAGRAATNGTIARIGLTYRRSPGVAHIRDLVQSGELGKVLHVTGHYWTDYGSNAQAPISWRYKGPNGSGALADVGSHLTYLAEFVAGSDFAAVRGGQLSTVITERPKPLGAIVGHEGGAVSDEYEAVENDDIASFSGSFIGGGTATLQVSRISQGHPNTLGFEVFCEKGSVLFDFRNSGEFKIFTPATSGDISQEAGYRTITIGPKHPYWRGGLAMDAPGVGIGQNEGFVFQARAFLEEIAGISEAESLPRCATLEEGLHNMQLIDAVSQSAAAGGETVAVPAAALIPANN
notes: full length, C-terminal Strep-tag II, expressed in C. glutamicum MB001(DE3) from pPREx6-OxiB; StrepTactin and size exclusion
In the case of B3, in “purified protein [3]”, the Km was 28.8 ± 7.1 mM, the Vmax turned out to be 0.05 µmol/min/mg, the kcat amounted to 0.03 s⁻¹ and the kcat/Km turned out to be 1.03 ± 0.11 M⁻¹ s⁻¹. Moreover, in the series “purified protein [1]”, the Km turned out to be 62.1 ± 12.5 mM, the Vmax was determined as 5.8 µmol/min/mg, the kcat came out at 4.2 ± 0.4 s⁻¹ and the kcat/Km amounted to 69.1 ± 7.3 M⁻¹ s⁻¹.

B4: OxiE (Corynebacterium glutamicum ATCC 13032) (protein)
chain: MKNITIGMVGVGRIGRMHVANMLAVAETLKERDLNIEIVLADAMPGFAEQVGADMGVKAAASVDKLIEDGVDALFIATSTAGHVDVLRKGIAAKLPMFCEKPIASDVPESLNIIREIDAAGATVQVGHQRRFDLGYQEAKRRLDAGDLGWLHSLKAVSSDAFPPPVSYCATSGGLFRDVSLHDFDIIRWLTGQDIVEVYAKGSNNGDPEIGAVGDIDTGAALLTLADGTLATAIATRYNGAGHDVRLDVMGSKDSTIVGLDEKSAFASAEEGIDFPTGESHPTFAERFADAYKNECIAFVELILGERENPCTPADAVAAAIVADAAQLSLVTGEPVKIPTVREILEGSAQPVEVRALVPSA
notes: full length, C-terminal Strep-tag II, expressed in C. glutamicum MB001(DE3) from pPREx6-OxiE; StrepTactin and size exclusion
Turning to B4, in the series “purified protein [3]”, the Michaelis constant (Km) amounted to 12.4 ± 0.8 mM, the Vmax turned out to be 13.4 µmol/min/mg, the kcat was 8.5 ± 0.1 s⁻¹ and the kcat/Km worked out at 689 ± 41.5 M⁻¹ s⁻¹. For the same protein, in “purified protein [1]”, the Km came to 51.6 ± 3.6 mM, the maximum rate (Vmax) is 3.1 µmol/min/mg, the kcat is 3.9 ± 0.3 s⁻¹ and the kcat/Km is 76.7 ± 5.2 M⁻¹ s⁻¹. Moreover, in “purified protein [2]”, the Km stood at 54.1 ± 8.0 mM, the Vmax is 0.005 µmol/min/mg, the kcat came out at 0.003 s⁻¹ and the kcat/Km stood at 0.06 M⁻¹ s⁻¹.
